Reference: publication PMC9242855

Biological target: CMGE (Cdc45–MCM–GINS–Pol ε) (S. cerevisiae) (UniProt P29469)
Assay: negative-stain electron microscopy (2D averages, ReconSil); full CMG assembly reaction on nucleosome-flanked ARS1 origin DNA; DDK-phosphorylated double hexamers incubated with CDK, Dpb11, GINS, Cdc45, Pol ε, Sld3–Sld7, Sld2 and 5 mM ATP, 30 min at 30 °C

Question: Which results are given for “CMGE (Cdc45–MCM–GINS–Pol ε) (from UniProt P29469 1-868; P24279 1-971; P30665 1-933; P29496 1-775; P53091 1-1017; P38132 1-845; Q08032 1-650; Q03406 1-294; Q12146 1-194; P21951 1-2222; P24482 1-689) (complex)”?
Answer: percent of CMG particles that are dimers (dCMGE, cis configuration): 11%; percent of CMG particles that are dimers (dCMGE, trans configuration): 70%
